In article PMC11876735 (Journal of Nuclear Medicine, 2025):

Columns and labels:
Conditions in all cases: in vivo
[1] = set-up: species or system patients
Protocol: Dosimetry assessments were performed using planar scintigraphy methodology routinely used at the time the study was conducted ([9],[10]). […] The geometric mean between the anterior and posterior images at each time point was calculated ([11]). Source organ radioactivity was determined at each time point, and cumulative activities were calculated ([12]). Absorbed dose values in target organs were calculated using time-integrated activity coefficients ([13]) of source organs using OLINDA/EXM version 1.0 (Hermes Medical Solutions) ([14]). A blood-based model was used to derive the cumulative activity in the red marrow and the corresponding absorbed dose ([15],[16]).

[2] = system: midgut neuroendocrine tumors; set-up: species or system patients
Description: For tumor dosimetry, baseline scintigraphy was used to select tumors that were easily delineated on imaging. Tumor doses were derived using the sphere model of OLINDA/EXM version 1.0 ([14]). The ^177Lu dose factor values were interpolated for each lesion on the basis of its mass.

[3] = set-up: species or system patients; remark: listed apart in the source
Description: Safety data were collected as previously described ([5]).

[4] = system: midgut neuroendocrine tumors; set-up: species or system patients; remark: listed apart in the source
Protocol: The best tumor size change from baseline was assessed in individual lesions with dosimetric estimations. Tumor size was assessed by CT using 2 dimensions (longest [L] and perpendicular [W]) for each tumor per time point. Size change was based on the ratio of tumor area (L × W) at measured times (Tt) to tumor area at baseline (Tbl) and presented as a percentage where percentage tumor size change was ((Tt/Tbl) − 1) × 100%. Positive values indicate size growth, and negative values represent size reduction. Analyses were repeated using 1 dimension (short axis for lymph node lesions and long axis for other lesions). Tumor measurements were performed at 2–7 time points at 12-wk intervals until 72 wk after the first administration. […] However, the timings of dosimetry assessments were not the same for all lesions. Lesion uptake was assumed to be proportional to mass, resulting in a constant absorbed dose at all cycles for an equivalent injected activity. The cumulative absorbed dose was calculated for each target lesion. The correlation between tumor absorbed dose and effect was assessed by plotting the best percentage tumor size change from baseline versus the tumor cumulative absorbed dose.

SMILES: C[C@@H](O)[C@H](NC(=O)[C@@H]1CSSC[C@H](NC(=O)[C@@H](Cc2ccccc2)NC(=O)CN2CCN(CC(=O)O)CCN(CC(=O)O)CCN(CC(=O)O)CC2)C(=O)N[C@@H](Cc2ccc(O)cc2)C(=O)N[C@H](Cc2c[nH]c3ccccc23)C(=O)N[C@@H](CCCCN)C(=O)N[C@@H]([C@@H](C)O)C(=O)N1)C(=O)O [^177Lu-DOTATATE, [^177Lu]Lu-DOTATATE, metal not drawn]
- Overall effective half-life of the elimination phase ([1]; human): 21 to 161 h
- Cumulative red marrow dose [1]: 3.2 Gy
- Kidney doses in three substudy patients [1]: 28-33 Gy
- Kidney injected activity profile, peak [1]: around 8%
- Absorbed dose for four 7.4 GBq (29.6 GBq in total), Median (range) [2]: 134 (7–2,218) Gy
- Absorbed dose per unit activity, Median (range) [2]: 4.5 (0.2–74.9) Gy/GBq
- Lesion activity at 160 h [2]: less than 0.01 % of injected activity
- Target lesions with cumulative absorbed dose of at least 50 Gy [2]: 73.8%
- Target lesions with cumulative absorbed dose of at least 100 Gy [2]: 52.3%
- Absorbed dose for four 7.4 GBq (29.6 GBq in total), Mean (SD) ([2]; SD): 224 (313) Gy
- Absorbed dose per unit activity, Mean (SD) ([2]; SD): 7.6 (10.6) Gy/GBq
- Acute hematologic toxicity grade [3]: mild or moderate (grade 1 or 2)
- Patients with grade 4 lymphopenia during treatment (acute toxicity) [3]: 20%
- Patients with transient grade 3 leukopenia during treatment [3]: 10%
- Severe renal toxicity [3]: no severe renal toxicity was observed
- Cumulative absorbed dose range of lesions with approximately 50 Gy or greater [4]: 50–789 Gy
- Lesions that received a cumulative absorbed dose of approximately 50 Gy or greater [4]: 73%
